Data on one molecule can be found in US20250313644A1 (FUTUREGEN BIOPHARMACEUTICAL BEIJING, published 2025).

The target of this assay is T1, endogenous TL1A induced in PBMC by immune complexes (UniProt O95150 72-251, limits assumed).
T1 sequence (looked up): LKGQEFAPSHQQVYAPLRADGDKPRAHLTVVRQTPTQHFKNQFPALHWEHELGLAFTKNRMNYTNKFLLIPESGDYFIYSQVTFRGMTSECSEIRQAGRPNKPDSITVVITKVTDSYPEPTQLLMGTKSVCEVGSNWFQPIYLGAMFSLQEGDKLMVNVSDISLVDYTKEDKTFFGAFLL
Briefly: cell-based or functional assay.

B1: M701-4007 (antibody, human IgG1, kappa, L234A L235A, V domains shown)
VH: ELQLQESGPGLVKPSETLSLTCAVSGVSFSDYHWAWIRQPPGKGLEWIGDINHRGHTNYNPSLKSRVTVSIDTSKNQFSLKLSSVTAADTAVYFCARDFPNFIFDFWGQGTLVTVSS
VL: DIQLTQSPGTLSLSPGERATLSCRASQSVSTYLAWYQQKPGQAPRLLIYGASKRATGIPDRFSGSGSGTDFTLTISRLEPEDFAVYYCQQYGDSPLTFGQGTKVEIKR
notes: Fc-engineered IgG1
Take B1: the “IC50 (read off the curve); IFN-γ of PBMC stimulated with immune complex, IL-12 and IL-18” value was roughly 0.5 nM.
